This experiment concerns the target tetanus toxin (Clostridium tetani, UniProt P04958 2-1315).

tetanus toxin, sequence (P04958 2-457 limits assumed, chain 1 of 2): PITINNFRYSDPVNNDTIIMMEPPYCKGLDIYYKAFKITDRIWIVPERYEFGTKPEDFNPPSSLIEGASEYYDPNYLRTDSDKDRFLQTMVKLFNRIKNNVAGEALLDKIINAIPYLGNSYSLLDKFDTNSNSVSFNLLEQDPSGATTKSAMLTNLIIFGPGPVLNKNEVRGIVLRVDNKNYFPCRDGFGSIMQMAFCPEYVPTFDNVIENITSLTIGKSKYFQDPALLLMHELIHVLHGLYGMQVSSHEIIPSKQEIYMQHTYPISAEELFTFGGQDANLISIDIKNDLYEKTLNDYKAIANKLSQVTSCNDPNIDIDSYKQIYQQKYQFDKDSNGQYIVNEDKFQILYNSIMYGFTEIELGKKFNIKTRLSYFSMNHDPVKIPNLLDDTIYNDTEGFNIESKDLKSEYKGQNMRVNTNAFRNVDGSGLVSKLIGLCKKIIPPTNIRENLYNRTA
tetanus toxin, sequence (P04958 458-1315 limits assumed, chain 2 of 2): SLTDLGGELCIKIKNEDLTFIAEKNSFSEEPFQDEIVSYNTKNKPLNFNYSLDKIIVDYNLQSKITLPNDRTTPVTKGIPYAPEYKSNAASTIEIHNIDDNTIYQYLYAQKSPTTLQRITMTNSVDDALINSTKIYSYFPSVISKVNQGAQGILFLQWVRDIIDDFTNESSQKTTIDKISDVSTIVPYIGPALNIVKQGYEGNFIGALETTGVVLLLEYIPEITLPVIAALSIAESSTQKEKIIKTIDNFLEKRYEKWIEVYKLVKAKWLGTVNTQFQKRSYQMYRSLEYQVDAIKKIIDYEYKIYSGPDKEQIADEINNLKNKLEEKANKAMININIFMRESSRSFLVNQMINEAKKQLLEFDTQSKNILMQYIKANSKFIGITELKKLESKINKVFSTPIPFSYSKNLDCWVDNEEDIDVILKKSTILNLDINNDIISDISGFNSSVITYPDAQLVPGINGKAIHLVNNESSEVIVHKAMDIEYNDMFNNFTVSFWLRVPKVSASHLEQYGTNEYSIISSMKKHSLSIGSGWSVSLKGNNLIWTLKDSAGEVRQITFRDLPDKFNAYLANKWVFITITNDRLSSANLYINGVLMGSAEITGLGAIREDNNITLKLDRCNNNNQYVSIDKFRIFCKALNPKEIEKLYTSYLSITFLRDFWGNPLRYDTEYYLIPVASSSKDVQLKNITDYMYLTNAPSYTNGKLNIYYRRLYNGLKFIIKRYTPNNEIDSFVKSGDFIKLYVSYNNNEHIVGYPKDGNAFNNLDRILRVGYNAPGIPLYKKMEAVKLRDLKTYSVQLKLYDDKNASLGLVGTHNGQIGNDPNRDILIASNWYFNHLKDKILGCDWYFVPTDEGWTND

B1: TRN0012 antibody (antibody, V domains shown)
VH: EVQLVQSGAEVKKPGESLRISCQGSGYTFTNYWIGWVRQMPGKGLEWMGIVYPGDSDTRYSPSFQGQITISADKSISTAYLQWNNLKASDTGMYYCATQQSNPYDSGSYWYFDSWGQGTLVTVSS
VL: DIVMTQSPPSLSASIGDRVTITCRASQGIRNFLAWYQQKPGKVPKLLIYAASTLQSGVPSRFSGSGSGTDFTLTISSLQPEDVATYYCQKYFSAPPDFGQGTRLEIK
As a reminder, the Kd is the free concentration of one partner at which half of the binding sites on the other are occupied at equilibrium, for simple one-to-one binding. A high value points to weaker binding. In general, koff refers to a measure of how fast the partners let go of each other. High values mean a short-lived complex, low ones a long-lived complex. Usually kon stands for the second-order rate constant of association. A higher kon goes with fast association. The molecule B1 returned a dissociation constant (Kd) of 4.07 nM, a dissociation rate constant (koff) of 0.000328 s⁻¹ and a kon of 80600 M⁻¹ s⁻¹.

B2: TRN0010 antibody (antibody, V domains shown)
VH: QVQLQESGPGLVKPSETLSLRCTVSGGSISSYYWSWFRQPPGKGLEWIGYVHYSGSTNYNPSLKSRFTLSVDTSKSQFSLRLRSVTAADTAIYYCARDKYQTDVSDIWGQGTVVTVSS
VL: DIQMTQSPGTLSLSPGERATLSCRASQSITSSFLAWYQQKPGQAPRLLIYGASSRATGIPDRFSGSGSGTDFILTISRLEPEDFAVYYCQQYDTSRTFGQGTTVEIK
B2 showed a Kd of 3.68 nM, an off-rate constant (koff) of 0.000153 s⁻¹ and an on-rate (kon) of 41500 M⁻¹ s⁻¹.

The values are drawn from patent US20210002356A1 (ZHUHAI TRINOMAB BIOTECHNOLOGY, published 2021).
